Measured values: PMC5889325 (Molecular cell, 2018)

Tests used:
[1] = target: amino-terminal poly-histidine-tagged Cas4 (Bacillus halodurans type I-C), co-expressed with untagged Cas1 (Bacillus halodurans); test: negative-stain EM reconstruction
[2] = target: the molecule itself; test: negative-stain EM reconstruction

B1: untagged Cas1 (Bacillus halodurans type I-C), co-expressed with His6-Cas4 (natural protein, UniProt Q9KFX9 1-343, looked up)
chain: MKKLLNTLYVTQPDTYLSLDGDNVVLLKEQEKLGRLPLHNLEAIVGFGYTGASPALMGYCAERNISITFLTKNGRFLARVVGESRGNVVLRKTQYRISENDQESTKIARNFITGKVYNSKWMLERMTREHPLRVNVEQFKATSQLLSVMMQEIRNCDSLESLRGWEGQAAINYNKVFDQMILQQKEEFAFHGRSRRPPKDNVNAMLSFAYTLLANDVAAALETVGLDAYVGFMHQDRPGRASLALDLMEELRGLYADRFVLSLINRKEMTADGFYKKENGAVLMTDEARKTFLKAWQTKKQEKITHPYLGEKMSWGLVPYVQALLLARFLRGDLDEYPPFLWK
For B1, the stoichiometry N (Cas1 per complex) [1] was 4, the stoichiometry N (Cas4 per complex) [1] was 2 and the binding result [2] was “binds”.
